Test results: FireProtDB (doi:10.1021/bi992257j)

B1: Rubredoxin, P24297 (parent)
chain: MAKWVCKICGYIYDEDAGDPDNGISPGTKFEELPDDWVCPICGAPKSEFEKLED

Variants of: B1
Conditions: Pyrococcus furiosus (strain ATCC 43587 / DSM 3638 / JCM 8422 / Vc1), pH 6.3, CD, Sodium phosphate 50 mM, reversible: yes, structure 1BRF, whole UniProt chain shown; for denaturant m value / denaturant midpoint (higher = more stable) / unfolding free energy: 1 °C; for Tm: Thermal

Row | Variant | denaturant m value (GdnHCl) | denaturant midpoint (higher = more stable) (GdnHCl) | unfolding free energy (GdnHCl) | Tm | denaturant m value (Urea) | denaturant midpoint (higher = more stable) (Urea) | unfolding free energy (Urea)
1 | MAKWVLKITGYIYDEDAGDPDNGISPGTKFEELPDDWVAPITGAPKSEFEKLED | 1.9 kcal/mol/M | 1.68 M | 3.2 kcal/mol | 82 °C |  |  | 
2 | MQKWVLKITGYIYDTDAGDPDNGISPGTKFEELPDDWVAPITGAPKSEFEKLED |  |  |  | 41 °C | 1.03 kcal/mol/M | 1.6 M | 1.7 kcal/mol
3 | MQKWVLKITGYIYDQDAGDPDNGISPGTKFEELPDDWVAPITGAPKSEFEKLED | 3 kcal/mol/M | 0.5 M | 1.5 kcal/mol | 39 °C | 1.03 kcal/mol/M | 2 M | 2.1 kcal/mol
4 | MQKWVLKITGYIYDEDAGDPDNGISPGTKFEELPDDWVAPITGAPKSEFEKLED |  |  |  | 63 °C | 0.93 kcal/mol/M | 3.8 M | 3.5 kcal/mol
5 | MAKWVLKITGYIYDTDAGDPDNGISPGTKFEELPDDWVAPITGAPKSEFEKLED |  |  |  | 38 °C | 0.98 kcal/mol/M | 1.3 M | 1.3 kcal/mol
6 | MAKWVLKITGYIYDQDAGDPDNGISPGTKFEELPDDWVAPITGAPKSEFEKLED | 2.5 kcal/mol/M | 0.63 M | 1.7 kcal/mol | 57 °C | 0.91 kcal/mol/M | 3 M | 2.7 kcal/mol
7 | MAKWVLAITGYIYDEDAGDPDNGISPGTKFEELPDDWVAPITGAPKSEFAKLED | 2.2 kcal/mol/M | 1.27 M | 2.8 kcal/mol | 74 °C | 0.84 kcal/mol/M | 4.5 M | 3.8 kcal/mol
8 | MAKWVLAITGYIYDEDAGDPDNGISPGTKFEELPDDWVAPITGAPKSEFEKLED | 2 kcal/mol/M | 1.6 M | 3.2 kcal/mol | 74 °C | 0.81 kcal/mol/M | 4.9 M | 4 kcal/mol
9 | MAKWVLKITGYIYDEDAGDPDNGISPGTKFEELPDDWVAPITGAPKSEFAKLED | 2.3 kcal/mol/M | 1.35 M | 3.1 kcal/mol | 77 °C | 0.86 kcal/mol/M | 4.8 M | 4.1 kcal/mol
